The text below walks through data of patent US20250179144A1.

For assay [1], the target named is BTN2A1 ectodomain homodimer, disulfide-linked (C-terminal Cys247, acidic or basic leucine zipper) (human) (UniProt Q7KYR7). In words: SPR, soluble TCR over immobilised BTN2A1 homodimer, KD at equilibrium.
Assay [2] concerns the target full-length human BTN3A1 on transfected cells pre-treated (cross-linked) with anti-BTN3A mAb clone 20.1 (human). In words: flow cytometry, FRET (YG 670/30) between TCR tetramer-PE and anti-BTN3A 20.1-AF647 on BTN3A1+ NIH-3T3 cells; with IgG1κ-AF647 the gate holds 0.02, with SAv 0.
The target of assay [3] is BTN2A1 (WT) and BTN3A1 (WT) co-expressed on NIH-3T3 cells (human) (UniProt Q7KYR7). In words: flow cytometry on NIH-3T3 cells co-transfected with BTN2A1 WT and BTN3A1 WT, no zoledronate.
Chain of BTN2A1 (WT) and BTN3A1 (WT) co-expressed on NIH-3T3 cells (human) (Q7KYR7 29-527, chain 1 of 2): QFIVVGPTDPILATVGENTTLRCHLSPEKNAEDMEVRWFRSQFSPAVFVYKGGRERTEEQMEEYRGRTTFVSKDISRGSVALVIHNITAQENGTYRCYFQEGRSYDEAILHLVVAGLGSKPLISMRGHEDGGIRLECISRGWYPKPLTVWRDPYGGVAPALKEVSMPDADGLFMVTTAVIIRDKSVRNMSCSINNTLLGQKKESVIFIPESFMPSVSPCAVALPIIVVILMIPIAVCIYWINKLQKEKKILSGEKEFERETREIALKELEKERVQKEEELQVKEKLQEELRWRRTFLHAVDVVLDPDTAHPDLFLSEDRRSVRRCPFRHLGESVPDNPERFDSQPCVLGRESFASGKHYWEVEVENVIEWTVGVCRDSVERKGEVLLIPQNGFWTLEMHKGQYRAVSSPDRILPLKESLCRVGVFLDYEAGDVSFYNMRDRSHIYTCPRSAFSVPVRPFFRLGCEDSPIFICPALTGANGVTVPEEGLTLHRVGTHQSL
Chain of BTN2A1 (WT) and BTN3A1 (WT) co-expressed on NIH-3T3 cells (human) (chain, as listed by the source, chain 2 of 2): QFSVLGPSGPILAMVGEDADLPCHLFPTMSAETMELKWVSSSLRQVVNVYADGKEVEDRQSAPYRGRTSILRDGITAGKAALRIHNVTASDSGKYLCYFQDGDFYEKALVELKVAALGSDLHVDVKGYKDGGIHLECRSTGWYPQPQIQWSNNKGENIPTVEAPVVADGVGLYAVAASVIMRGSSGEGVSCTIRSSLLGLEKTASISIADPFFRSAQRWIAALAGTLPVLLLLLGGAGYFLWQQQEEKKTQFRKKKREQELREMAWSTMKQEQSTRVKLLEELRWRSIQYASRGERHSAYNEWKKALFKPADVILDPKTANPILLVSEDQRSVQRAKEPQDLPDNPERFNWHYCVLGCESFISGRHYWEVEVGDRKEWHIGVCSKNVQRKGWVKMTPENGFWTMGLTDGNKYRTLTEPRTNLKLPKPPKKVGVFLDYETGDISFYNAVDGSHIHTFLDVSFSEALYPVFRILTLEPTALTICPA
For assay [4], the target named is BTN2A1 (Ser44-Arg) and BTN3A1 (WT) co-expressed on NIH-3T3 cells (human) (UniProt Q7KYR7). In words: flow cytometry on NIH-3T3 cells co-transfected with BTN2A1 Ser44-Arg and BTN3A1 WT, zoledronate (100 µM).
Chain of BTN2A1 (Ser44-Arg) and BTN3A1 (WT) co-expressed on NIH-3T3 cells (human) (Q7KYR7 29-527 S72R, chain 1 of 2): as the sequence (Q7KYR7 29-527, chain 1 of 2) above, with S44R counted along it
Chain of BTN2A1 (Ser44-Arg) and BTN3A1 (WT) co-expressed on NIH-3T3 cells (human) (chain, as listed by the source S44R S44R, chain 2 of 2): as the sequence (chain, as listed by the source, chain 2 of 2) above
Assay [5] deals with BTN2A1 (Ser44-Arg) and BTN3A1 (Glu106-Ala) co-expressed on NIH-3T3 cells (human) (UniProt Q7KYR7). In words: flow cytometry on NIH-3T3 cells co-transfected with BTN2A1 Ser44-Arg and BTN3A1 Glu106-Ala, no zoledronate.
Chain of BTN2A1 (Ser44-Arg) and BTN3A1 (Glu106-Ala) co-expressed on NIH-3T3 cells (human) (Q7KYR7 29-527 S72R limits assumed, chain 1 of 2): as the sequence (Q7KYR7 29-527, chain 1 of 2) above, with S44R counted along it
Chain of BTN2A1 (Ser44-Arg) and BTN3A1 (Glu106-Ala) co-expressed on NIH-3T3 cells (human) (chain, as listed by the source S44R E106A S44R E106A limits assumed, chain 2 of 2): as the sequence (chain, as listed by the source, chain 2 of 2) above, with E106A counted along it
The target in assay [6] is BTN2A1 (WT) and BTN3A1 (Glu106-Ala) co-expressed on NIH-3T3 cells (human) (UniProt Q7KYR7). In words: flow cytometry on NIH-3T3 cells co-transfected with BTN2A1 WT and BTN3A1 Glu106-Ala, zoledronate (100 µM).
Chain of BTN2A1 (WT) and BTN3A1 (Glu106-Ala) co-expressed on NIH-3T3 cells (human) (Q7KYR7 29-527 limits assumed, chain 1 of 2): as the sequence (Q7KYR7 29-527, chain 1 of 2) above
Chain of BTN2A1 (WT) and BTN3A1 (Glu106-Ala) co-expressed on NIH-3T3 cells (human) (chain, as listed by the source E106A E106A limits assumed, chain 2 of 2): as the sequence (chain, as listed by the source, chain 2 of 2) above, with E106A counted along it
The target in assay [7] is full-length human BTN3A1 on transfected cells (human) (UniProt O00481). In words: flow cytometry, γδTCR tetramer-PE on BTN3A1-transfected NIH-3T3 cells treated with isotype IgG1κ (black number); SAv control 25.
Chain of full-length human BTN3A1 on transfected cells (human) (O00481 30-513): as the sequence (chain, as listed by the source, chain 2 of 2) above
For assay [8], the target named is BTN2A1 (WT) and BTN3A1 (WT) co-expressed on NIH-3T3 cells (human) (UniProt Q7KYR7). In words: flow cytometry on NIH-3T3 cells co-transfected with BTN2A1 WT and BTN3A1 WT, zoledronate (100 µM).
In assay [9] the target is BTN2A1 (WT) and BTN3A1 (Glu106-Ala) co-expressed on NIH-3T3 cells (human) (UniProt Q7KYR7). In words: flow cytometry on NIH-3T3 cells co-transfected with BTN2A1 WT and BTN3A1 Glu106-Ala, no zoledronate.
Assay [10] concerns the target BTN2A1-BTN3A1-zipper ectodomain complex (construct #1, long linker version with high affinity zippers) (human). In words: SPR, equilibrium; BTN2A1-BTN3A1 ectodomain complex immobilised, soluble TCR injected.
In assay [11] the target is BTN2A1 (Ser44-Arg) and BTN3A1 (Glu106-Ala) co-expressed on NIH-3T3 cells (human) (UniProt Q7KYR7). In words: flow cytometry on NIH-3T3 cells co-transfected with BTN2A1 Ser44-Arg and BTN3A1 Glu106-Ala, zoledronate (100 µM).
The target in assay [12] is BTN2A1 (Ser44-Arg) and BTN3A1 (WT) co-expressed on NIH-3T3 cells (human) (UniProt Q7KYR7). In words: flow cytometry on NIH-3T3 cells co-transfected with BTN2A1 Ser44-Arg and BTN3A1 WT, no zoledronate.

Chain of BTN2A1 ectodomain homodimer, disulfide-linked (C-terminal Cys247, acidic or basic leucine zipper) (human) (Q7KYR7 29-248, chain 1 of 2): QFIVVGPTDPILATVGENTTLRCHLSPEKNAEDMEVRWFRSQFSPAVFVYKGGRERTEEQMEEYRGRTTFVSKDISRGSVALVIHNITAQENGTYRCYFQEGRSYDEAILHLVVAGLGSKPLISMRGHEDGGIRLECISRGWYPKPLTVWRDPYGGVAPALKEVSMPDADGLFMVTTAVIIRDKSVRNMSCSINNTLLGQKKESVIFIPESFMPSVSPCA
Chain of BTN2A1 ectodomain homodimer, disulfide-linked (C-terminal Cys247, acidic or basic leucine zipper) (human) (Q7KYR7 29-248, chain 2 of 2): as the sequence (Q7KYR7 29-248, chain 1 of 2) above
Chain of full-length human BTN3A1 on transfected cells pre-treated (cross-linked) with anti-BTN3A mAb clone 20.1 (human) (O00481 30-513): as the sequence (chain, as listed by the source, chain 2 of 2) above

B1: soluble G115 Vγ9Vδ2+ TCR Lys53δ-Ala (TCR, from a related filing)
TCR delta: AIELVPEHQTVPVSIGVPATLRCSMKGEAIGNYYINWYRKTQGNTMTFIYREADIYGPGFKDNFQGDIDIAKNLAVLKILAPSERDEGSYYCACDTLGMGGEYTDKLIFGKGTRVTVEPRSQPHTKPSVFVMKNGTNVACLVKEFYPKDIRINLVSSKKITEFDPAIVISPSGKYNAVKLGKYEDSNSVTCSVQHDNKTVHSTDFEVKTDSTDHVKPKETENTKQPSKSCHKPKAIVHTEK
TCR gamma: AGHLEQPQISSTKTLSKTARLECVVSGITISATSVYWYRERPGEVIQFLVSISYDGTVRKESGIPSGKFEVDRIPETSTSTLTIHNVEKQDIATYYCALWEAQQELGKKIKVFGPGTKLIITDKQLDADVSPKPTIFLPSIAETKLQKAGTYLCLLEKFFPDVIKIHWEEKKSNTILGSQEGNTMKTNDTYMKFSWLTVPEKSLDKEHRCIVRHENNKNGVDQEIIFPPIKTDVITMDPKDNCSKDANDTLLLQLTNTSA
In [1], B1 displayed a Kd of 81 µM. The % cells in the FRET gate in [2] stood at 34%.

B2: soluble G115 Vγ9Vδ2+ TCR His85γ-Ala (TCR, from a related filing, V domains shown)
V domain 1: AIELVPEHQTVPVSIGVPATLRCSMKGEAIGNYYINWYRKTQGNTMTFIYREKDIYGPGFKDNFQGDIDIAKNLAVLKILAPSERDEGSYYCACDTLGMGGEYTDKLIFGKGTRVTVEP
V domain 2: AGHLEQPQISSTKTLSKTARLECVVSGITISATSVYWYRERPGEVIQFLVSISYDGTVRKESGIPSGKFEVDRIPETSTSTLTIANVEKQDIATYYCALWEAQQELGKKIKVFGPGTKLIITD
Regarding B2, the mean fluorescence intensity of TCR tetramer (black gate) in assay [3] amounted to 635; in assay [4], 28100; in [5], 11300; in [6], 23300; in assay [8], 1700; in assay [9], 7210. In addition, the mean fluorescence intensity of TCR tetramer (black gate) stood at 26600 in [11] and 10800 in [12]. The molecule also had an MFI of PE (GFP+ gate) in assay [7] of 33. Also, the Kd in assay [10] came out at 740 µM.

B3: G115 Vγ9Vδ2+ TCR tetramer Lys108γ-Ala (TCR, from a related filing, V domains shown)
V domain 1: AIELVPEHQTVPVSIGVPATLRCSMKGEAIGNYYINWYRKTQGNTMTFIYREKDIYGPGFKDNFQGDIDIAKNLAVLKILAPSERDEGSYYCACDTLGMGGEYTDKLIFGKGTRVTVEP
V domain 2: AGHLEQPQISSTKTLSKTARLECVVSGITISATSVYWYRERPGEVIQFLVSISYDGTVRKESGIPSGKFEVDRIPETSTSTLTIHNVEKQDIATYYCALWEAQQELGAKIKVFGPGTKLIITD
In [7], B3 had an MFI of PE (GFP+ gate) of 25.

B4: G115 Vγ9Vδ2+ TCR tetramer with combined His85γ-Ala and Glu52δ-Ala mutations (TCR, from a related filing, V domains shown)
V domain 1: AIELVPEHQTVPVSIGVPATLRCSMKGEAIGNYYINWYRKTQGNTMTFIYRAKDIYGPGFKDNFQGDIDIAKNLAVLKILAPSERDEGSYYCACDTLGMGGEYTDKLIFGKGTRVTVEP
V domain 2: AGHLEQPQISSTKTLSKTARLECVVSGITISATSVYWYRERPGEVIQFLVSISYDGTVRKESGIPSGKFEVDRIPETSTSTLTIANVEKQDIATYYCALWEAQQELGKKIKVFGPGTKLIITD
In turn, B4 registered an MFI of PE (GFP+ gate) in assay [7] of 38.

B5: soluble G115 Vγ9Vδ2+ TCR Glu52δ-Ala (TCR, from a related filing, V domains shown)
V domain 1: AIELVPEHQTVPVSIGVPATLRCSMKGEAIGNYYINWYRKTQGNTMTFIYRAKDIYGPGFKDNFQGDIDIAKNLAVLKILAPSERDEGSYYCACDTLGMGGEYTDKLIFGKGTRVTVEP
V domain 2: AGHLEQPQISSTKTLSKTARLECVVSGITISATSVYWYRERPGEVIQFLVSISYDGTVRKESGIPSGKFEVDRIPETSTSTLTIHNVEKQDIATYYCALWEAQQELGKKIKVFGPGTKLIITD
As to B5, the dissociation constant (Kd) was 93 µM in assay [1] and 140 µM in [10]. This molecule displayed an MFI of PE (GFP+ gate) in [7] of 32.
